# Experimental data taken from patent publication US20230135471A1, “UBIQUITIN VARIANTS WITH IMPROVED AFFINITY FOR 53BP1” (Integrated DNA Technologies, Inc., priority 2021, published 2023).
# Biological target: 53BP1 fragment (a.a. 1221-1718) fused to an adenylate cyclase fragment (two-hybrid) (UniProt Q12888)
# Test: cell-based or functional assay
Substance,Experiment 1 Average Enrichment [log2],Experiment 1 Rep 1 Enrichment [log2],Experiment 1 Rep 2 Enrichment [log2],Experiment 2 Average Enrichment [log2],Experiment 2 Rep 1 Enrichment [log2],Experiment 2 Rep 2 Enrichment [log2]
i53 + P69R two-hybrid fusion (designed binder),-1.93,-2.27,-1.59,0.75,0.2,1.29
i53 + E18C two-hybrid fusion (designed binder),0.23,-0.06,0.52,-0.34,-0.82,0.14
i53 + D39S two-hybrid fusion (designed binder),-1.51,-2.04,-0.99,0.04,0.16,-0.08
i53 + K48N two-hybrid fusion (designed binder),-0.04,-0.15,0.08,0.06,0.09,0.03
i53 + D58S two-hybrid fusion (designed binder),0.33,0.29,0.38,0.21,0.24,0.17
i53 + S57A two-hybrid fusion (designed binder),0.37,0.29,0.46,0.03,-0.03,0.08
i53 + Q31Y two-hybrid fusion (designed binder),0.32,0.31,0.34,-0.05,-0.26,0.16
i53 + K48R two-hybrid fusion (designed binder),0.35,0.39,0.32,0.14,0.09,0.19
i53 + E18R two-hybrid fusion (designed binder),-0.75,-1.22,-0.28,0.06,-0.24,0.36
i53 + D39W two-hybrid fusion (designed binder),0.99,0.9,1.09,0,0.86,-0.85
i53 + N25C two-hybrid fusion (designed binder),0.13,0.45,-0.19,0.26,0.31,0.21
i53 + K33Q two-hybrid fusion (designed binder),2.9,3.03,2.77,1.48,1.96,0.99
i53 + P19K two-hybrid fusion (designed binder),1,2.12,-0.12,-0.68,-0.26,-1.1
i53 + Q40E two-hybrid fusion (designed binder),1.37,1.67,1.08,1.18,1.84,0.52
i53 + N60Q two-hybrid fusion (designed binder),0.08,0.13,0.03,0.29,0.01,0.58
i53 + K33F two-hybrid fusion (designed binder),1.77,1.91,1.62,1.02,1.16,0.87
i53 + Q41V two-hybrid fusion (designed binder),-0.14,-0.37,0.1,0.05,0.13,-0.03
i53 + N25I two-hybrid fusion (designed binder),0.83,0.85,0.81,0.4,0.41,0.39

Substance,Experiment 1 Average Enrichment [log2],Experiment 1 Rep 1 Enrichment [log2],Experiment 1 Rep 2 Enrichment [log2],Experiment 2 Average Enrichment [log2],Experiment 2 Rep 1 Enrichment [log2],Experiment 2 Rep 2 Enrichment [log2]
i53 + P38I two-hybrid fusion (designed binder),0.66,0.4,0.92,0.64,1.62,-0.34
i53 + N25T two-hybrid fusion (designed binder),0.12,-0.19,0.44,0.29,0.33,0.24
i53 + S49V two-hybrid fusion (designed binder),0.52,0.8,0.23,0.49,0.52,0.45
i53 + S65K two-hybrid fusion (designed binder),1.65,1.61,1.69,0.63,0.74,0.53
i53 + R54M two-hybrid fusion (designed binder),0.85,0.82,0.89,0.56,0.56,0.55
i53 + D39Q two-hybrid fusion (designed binder),-2.78,-3.1,-2.46,0.03,-0.45,0.51
i53 + N25A two-hybrid fusion (designed binder),0.3,0.12,0.49,0.4,0.39,0.4
i53 + A28Q two-hybrid fusion (designed binder),0.44,0.47,0.42,0.14,0.59,-0.31
i53 + I13P two-hybrid fusion (designed binder),0.58,2.15,-0.99,-4.23,-3.84,-4.62
i53 + Q41I two-hybrid fusion (designed binder),0.3,0.3,0.3,-0.08,0.08,-0.25
i53 + M1S two-hybrid fusion (designed binder),0.38,0.55,0.21,0.34,0.27,0.41
i53 + S20D two-hybrid fusion (designed binder),-0.43,-0.14,-0.72,0.5,0.83,0.18
i53 + S57E two-hybrid fusion (designed binder),0.45,0.28,0.62,0.35,0.42,0.28
i53 + P38A two-hybrid fusion (designed binder),0.06,-0.41,0.53,0,-0.16,0.15
i53 + R54K two-hybrid fusion (designed binder),0.3,0.07,0.54,-0.22,-0.16,-0.29
i53 + L67S two-hybrid fusion (designed binder),1.18,1.15,1.2,0.94,1.24,0.63
i53 + S65R two-hybrid fusion (designed binder),1.14,1.15,1.13,1.1,1.48,0.72
i53 + T7I two-hybrid fusion (designed binder),1.66,1.7,1.63,1.03,1.04,1.02
